The supplement of paper PMC10724198
± gives the standard deviation of the averaged measurements.

Tested on: Saccharomyces cerevisiae
Assay: protein stability index of tFT-peptide fusion (C-terminal peptide) (PSI (0-1 scale)); higher = more stable (slower turnover)
Conditions: genetic background: wild type; temperature: 30 C
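Note: PSI is a weighted mean of sequencing reads over stability bins, variants kept only with over 10 reads, mCherry proximal and sfGFP distal, peptide attached via GGGS linker.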

Row | Sequence | protein stability index
1 | FRPCPLNSLSRY | 0.724 ± 0.021
2 | QHIKNARKKKGE | 0.657 ± 0.0073
3 | DEANFHGCYYGV | 0.647 ± 0.041
4 | PSLLPLLPLPPP | 0.685 ± 0.038
5 | GGGVGMLRRSGG | 0.689 ± 0.054
6 | LYGASRCLVARS | 0.664 ± 0.0093
7 | PPQALPHSSKQA | 0.6931 ± 0.0025
8 | LDSWKQDLYTVC | 0.674 ± 0.033
9 | SPAPIRFLWTIP | 0.59 ± 0.028
10 | PSPALLILPPYS | 0.672 ± 0.016
11 | FSSTCLSSRFAI | 0.684 ± 0.07
12 | SEKRIGAGKDSE | 0.688 ± 0.011
13 | LPPPPSAPHPSP | 0.668 ± 0.023
14 | SPPHPAALPSSP | 0.7005 ± 0.0032
15 | SPPILPRGLYSH | 0.637 ± 0.0097
16 | LAVSSAPLLSSF | 0.723 ± 0.071
17 | PPDPPPHASPAP | 0.72 ± 0.03
18 | RNRRKTLMETRS | 0.695 ± 0.082
19 | LDTVVNGAIPIL | 0.699 ± 0.051
20 | PNAFTEPTHPGR | 0.742 ± 0.066
21 | VGCSVGHFQRLF | 0.677 ± 0.017
22 | RHGDGGRGRVDG | 0.736 ± 0.1
23 | DDQLACSHDIDS | 0.643 ± 0.019
24 | VSCGRVGVARLG | 0.641 ± 0.016
25 | GRGWGGALGWCG | 0.668 ± 0.013
26 | PRPPYHAPSTFP | 0.575 ± 0.074

Row | Sequence | protein stability index
27 | PGCGRKSAFGLT | 0.699 ± 0.037
28 | PMFESFHLPAPI | 0.715 ± 0.018
29 | PSQRHQRPHREP | 0.657 ± 0.052
30 | PPASPSPSLLSP | 0.6491 ± 0.0025
31 | EPIMVKKACTDG | 0.645 ± 0.029
32 | PYSPPAHLLSLL | 0.878 ± 0.061
33 | MISIKNEKKKYT | 0.685 ± 0.069
34 | PLPPAPPSLSPP | 0.651 ± 0.01
35 | PPHPQRANAPGH | 0.6615 ± 0.0057
36 | RSSLAVSTKVER | 0.639 ± 0.02
37 | PPPLPPPSPCPL | 0.702 ± 0.018
38 | PSPYFHLFGTQS | 0.77 ± 0.027
39 | LFYRTLPLPWPA | 0.742 ± 0.02
40 | SFMYCDLLLFGS | 0.59 ± 0.068
41 | WGGWGLRVSCGT | 0.681 ± 0.052
42 | LNSRQATLRPQT | 0.716 ± 0.021
43 | PPPPFAAALSTP | 0.69 ± 0.039
44 | GGGGSGRRIGCR | 0.696 ± 0.035
45 | PLVPISPLPYLP | 0.737 ± 0.012
46 | AGGGAVWQGQQD | 0.725 ± 0.024
47 | AKREGGGYSEDN | 0.664 ± 0.086
48 | PPPQLRPLPQSL | 0.704 ± 0.018
49 | LGLGERLSINTF | 0.70035 ± 0.00022
50 | IKKKTKQKQHEK | 0.786 ± 0.3
51 | GDGAGGGFGLVV | 0.724 ± 0.097
52 | VGICWLTEPVLY | 0.731 ± 0.089

Row | Sequence | protein stability index
53 | IFRSCCLLGLCL | 0.591 ± 0.099
54 | RWARGGSRGGGG | 0.703 ± 0.044
55 | PPPTPRPAFLPP | 0.6969 ± 0.0037
56 | RLGLSIASAPCL | 0.693 ± 0.062
57 | TTLPFLLGSGGF | 0.677 ± 0.065
58 | SNKGIKNIKKKT | 0.728 ± 0.0084
59 | VRFLWWGLFWGW | 0.499 ± 0.016
60 | LWCWVGGALCGG | 0.742 ± 0.17
61 | ERYKHKKMKNNE | 0.699 ± 0.097
62 | SLSPPPLSPSPP | 0.627 ± 0.022
63 | PPASLPPPTAFN | 0.764 ± 0.049
64 | VCVCCMGCGLGV | 0.68773 ± 5.6e-05
65 | KSLNTAGVLTGR | 0.68 ± 0.034
66 | PPSRPLPSPLPP | 0.631 ± 0.03
67 | SRVGWSRLGPGL | 0.68 ± 0.022
68 | RELGAWSFITSV | 0.705 ± 0.014
69 | NCSPLCLRVASS | 0.647 ± 0.029
70 | HFSTSFYSSAFR | 0.631 ± 0.026
71 | WRPLIPPSLPPL | 0.6977 ± 0.0069
72 | LSPCPPLRPLLS | 0.676 ± 0.081
73 | PSPFDTPPSSGQ | 0.722 ± 0.026
74 | LQLFLWRVVAPV | 0.477 ± 0.038
75 | HGLGSWGTFLGV | 0.655 ± 0.021
76 | PLAPPSPPPAPP | 0.6618 ± 0.00085
77 | PSPSTSLPPSPP | 0.684 ± 0.042
78 | FFWFFFLRFLFS | 0.568 ± 0.031

Row | Sequence | protein stability index
79 | SLPFSPPTRSSL | 0.758 ± 0.052
80 | VNHVVRFFFSSH | 0.676 ± 0.019
81 | HSINNVITNNTE | 0.678 ± 0.017
82 | SRNVGRWSLRVV | 0.632 ± 0.024
83 | LGFVRLLFPSFS | 0.758 ± 0.022
84 | HAEREDTESQTR | 0.714 ± 0.05
85 | EVDHLPHQVFRY | 0.6671 ± 0.0021
86 | PPHTSPLSPRPP | 0.658 ± 0.052
87 | VCWLTCCGQLIA | 0.514 ± 0.0068
88 | PPPDHSPPPCPP | 0.6857 ± 0.0037
89 | VGCEGGRRGVGG | 0.65 ± 0.059
90 | DSYELGICCSSS | 0.6678 ± 0.0019
91 | GSVCCLSLHCFV | 0.62 ± 0.033
92 | AEIINRVKSRSK | 0.731 ± 0.074
93 | GFIDGSTVRTCL | 0.64 ± 0.054
94 | SLRLPPPRRLPV | 0.658 ± 0.12
95 | IKRIDQYEKQNK | 0.659 ± 0.07
96 | FCHLGSPATDFR | 0.646 ± 0.013
97 | PPPPPPSPPRLP | 0.592 ± 0.03
98 | KKKNTKKKNEQS | 0.725 ± 0.014
99 | PTSFAPSPPLPR | 0.741 ± 0.025
100 | NLGLSGRYAPCK | 0.689 ± 0.0072
101 | SLVVSPRQLLPR | 0.704 ± 0.029
